# Patent publication US20150344570A1 (published 2015)
# B1: GpH7-A5/GpH7-B3 variant H268_02A/GpL16-k0 (antibody, human IgG1, kappa)
# heavy 1: not shown
# heavy 2: not shown
# light: DIVMTQSPLSLPVTPGEPASISCQASESLVHSNRNTYLHWYLQKPGQSPQLLIYKVSNRFSGVPDRFSGSGSGTDFTLKISRVEAEDVGVYYCSQNTHVPPTFGQGTKVEIERTVAAPSVFIFPPSDEQLKSGTASVVCLLNNFYPREAKVQWKVDNALQSGNSQESVTEQDSKDSTYSLSSTLTLSKADYEKHKVYACEVTHQGLSSPVTKSFNRGEC
# notes: one H chain altered; also called He Ab H268_02A
# B2: GpH7-A5/GpH7-B3 variant S337_18N/GpL16-k0 (antibody, human IgG1, kappa)
# heavy 1: not shown
# heavy 2: not shown
# light: B1 light
# notes: one H chain altered; also called He Ab S337_18N
# B3: GpH7-A5/GpH7-B3 variant K326_08L/GpL16-k0 (antibody, human IgG1, kappa)
# heavy 1: not shown
# heavy 2: not shown
# light: B1 light
# notes: one H chain altered; also called He Ab K326_08L
# B4: GpH7-A5/GpH7-B3 variant S337_09D/GpL16-k0 (antibody, human IgG1, kappa)
# heavy 1: not shown
# heavy 2: not shown
# light: B1 light
# notes: one H chain altered; also called He Ab S337_09D
# B5: GpH7-A5/GpH7-B3 variant I336_06M/GpL16-k0 (antibody, human IgG1, kappa)
# heavy 1: not shown
# heavy 2: not shown
# light: B1 light
# notes: one H chain altered; also called He Ab I336_06M
# B6: GpH7-A5/GpH7-B3 variant S267_09D/GpL16-k0 (antibody, human IgG1, kappa)
# heavy 1: not shown
# heavy 2: not shown
# light: B1 light
# notes: one H chain altered; also called He Ab S267_09D
# B7: GpH7-A5/GpH7-B3 variant T335_07I/GpL16-k0 (antibody, human IgG1, kappa)
# heavy 1: not shown
# heavy 2: not shown
# light: B1 light
# notes: one H chain altered; also called He Ab T335_07I
# B8: GpH7-A5/GpH7-B3 variant K334_09D/GpL16-k0 (antibody, human IgG1, kappa)
# heavy 1: not shown
# heavy 2: not shown
# light: B1 light
# notes: one H chain altered; also called He Ab K334_09D
# B9: GpH7-A5/GpH7-B3 variant S267_02A/GpL16-k0 (antibody, human IgG1, kappa)
# heavy 1: not shown
# heavy 2: not shown
# light: B1 light
# notes: one H chain altered; also called He Ab S267_02A
# B10: GpH7-A5/GpH7-B3 variant I336_03V/GpL16-k0 (antibody, human IgG1, kappa)
# heavy 1: not shown
# heavy 2: not shown
# light: B1 light
# notes: one H chain altered; also called He Ab I336_03V
# B11: GpH7-A5/GpH7-B3 variant K334_01G/GpL16-k0 (antibody, human IgG1, kappa)
# heavy 1: not shown
# heavy 2: not shown
# light: B1 light
# notes: one H chain altered; also called He Ab K334_01G
# B12: GpH7-A5/GpH7-B3 variant I332_01G/GpL16-k0 (antibody, human IgG1, kappa)
# heavy 1: not shown
# heavy 2: not shown
# light: B1 light
# notes: one H chain altered; also called He Ab I332_01G
# B13: GpH7-A5/GpH7-B3 variant K326_07I/GpL16-k0 (antibody, human IgG1, kappa)
# heavy 1: not shown
# heavy 2: not shown
# light: B1 light
# notes: one H chain altered; also called He Ab K326_07I
# B14: GpH7-A5/GpH7-B3 variant S324_15Y/GpL16-k0 (antibody, human IgG1, kappa)
# heavy 1: not shown
# heavy 2: not shown
# light: B1 light
# notes: one H chain altered; also called He Ab S324_15Y
# B15: GpH7-A5/GpH7-B3 variant S324_16H/GpL16-k0 (antibody, human IgG1, kappa)
# heavy 1: not shown
# heavy 2: not shown
# light: B1 light
# notes: one H chain altered; also called He Ab S324_16H
# B16: GpH7-A5/GpH7-B3 variant S298_14T/GpL16-k0 (antibody, human IgG1, kappa)
# heavy 1: not shown
# heavy 2: not shown
# light: B1 light
# notes: one H chain altered; also called He Ab S298_14T
# B17: GpH7-A5/GpH7-B3 variant S337_10E/GpL16-k0 (antibody, human IgG1, kappa)
# heavy 1: not shown
# heavy 2: not shown
# light: B1 light
# notes: one H chain altered; also called He Ab S337_10E
# B18: GpH7-A5/GpH7-B3 variant T335_10E/GpL16-k0 (antibody, human IgG1, kappa)
# heavy 1: not shown
# heavy 2: not shown
# light: B1 light
# notes: one H chain altered; also called He Ab T335_10E
# B19: GpH7-A5/GpH7-B3 variant Q295_14T/GpL16-k0 (antibody, human IgG1, kappa)
# heavy 1: not shown
# heavy 2: not shown
# light: B1 light
# notes: one H chain altered; also called He Ab Q295_14T
# B20: GpH7-A5/GpH7-B3 variant I336_02A/GpL16-k0 (antibody, human IgG1, kappa)
# heavy 1: not shown
# heavy 2: not shown
# light: B1 light
# notes: one H chain altered; also called He Ab I336_02A
# B21: GpH7-A5/GpH7-B3 variant I336_18N/GpL16-k0 (antibody, human IgG1, kappa)
# heavy 1: not shown
# heavy 2: not shown
# light: B1 light
# notes: one H chain altered; also called He Ab I336_18N
# Target: FcγRIIIa extracellular domain with C-terminal His tag (human, UniProt P08637 17-208)
# Sequence (P08637 17-208): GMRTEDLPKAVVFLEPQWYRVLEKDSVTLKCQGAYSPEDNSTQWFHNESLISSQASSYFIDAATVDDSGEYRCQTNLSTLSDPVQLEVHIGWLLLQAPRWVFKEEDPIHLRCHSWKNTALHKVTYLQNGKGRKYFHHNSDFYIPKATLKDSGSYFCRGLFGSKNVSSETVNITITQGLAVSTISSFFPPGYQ
# Assay: SPR (Biacore), one H chain altered; HeCon Ab GpH7-A5/GpH7-B3/GpL16-k0 = 100
row,He/Con_3a,Binder
1,122%,B1
2,104%,B2
3,114%,B3
4,110%,B4
5,109%,B5
6,181%,B6
7,107%,B7
8,160%,B8
9,150%,B9
10,112%,B10
11,121%,B11
12,111%,B12
13,139%,B13
14,101%,B14
15,104%,B15
16,113%,B16
17,105%,B17
18,107%,B18
19,115%,B19
20,111%,B20
21,104%,B21
